Assay results taken from PMC11466968.

Assays:
[1] = target: BAG3 (UniProt O95817); experiment: co-immunoprecipitation; conditions: sites T287
[2] = target: HRI (UniProt Q9BQI3); experiment: co-immunoprecipitation with anti-FLAG antibody; conditions: reference: wild type BAG3-FLAG; sites S173,S377,S386

Question: Which “binding against the reference” value ([1]; reference: wild type CaMKIIδ) does the source give for “CaMKIIδ (from UniProt Q13557) CaMKIIδ T287A” here?
Answer: weaker

Question: For “CaMKIIβ (from UniProt Q13554) CaMKIIβ T287A”, which “binding against the reference” value ([1]; reference: wild type CaMKIIβ) is on record?
Answer: weaker

Question: “BAG3 (from UniProt O95817) BAG3 3A (S173A/S377A/S386A)” was tested. Which “binding against the reference” value [2] did it give?
Answer: weaker
